Here are results for 2 molecules from patent US12797409, “Heparan sulfate mimetics to improve glucose clearance” (THE REGENTS OF THE UNIVERSITY OF CALIFORNIA).

Data set [1] concerns the target T1, Alpl (alkaline phosphatase) (Mus musculus, UniProt P09242 P09242:18-501).
T1 sequence: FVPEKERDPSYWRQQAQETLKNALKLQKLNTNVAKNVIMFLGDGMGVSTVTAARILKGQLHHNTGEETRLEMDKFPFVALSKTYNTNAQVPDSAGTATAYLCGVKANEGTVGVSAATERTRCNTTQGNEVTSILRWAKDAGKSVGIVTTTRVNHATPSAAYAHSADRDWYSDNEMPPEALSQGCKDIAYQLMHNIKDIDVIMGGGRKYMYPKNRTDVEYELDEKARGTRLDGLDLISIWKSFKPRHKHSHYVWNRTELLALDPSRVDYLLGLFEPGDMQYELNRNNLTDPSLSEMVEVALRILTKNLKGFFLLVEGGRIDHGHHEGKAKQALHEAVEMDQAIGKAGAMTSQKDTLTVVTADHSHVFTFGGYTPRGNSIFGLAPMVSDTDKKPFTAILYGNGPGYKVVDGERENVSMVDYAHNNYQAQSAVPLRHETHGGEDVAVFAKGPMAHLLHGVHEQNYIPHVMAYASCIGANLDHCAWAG
In words: flow; biotinylated aptamer alone on Ext1-/- mouse ES cells; cell-surface binding. The conditions noted are these: tags: endogenous on Ext1-/- mouse embryonic stem cells; chain copies: 2; G4.

The target of data set [2] is T1, Alpl (alkaline phosphatase). The data set is described as follows: flow; Ext1-/- mouse ES cells, 40 min in suspension, 0-200 nM; binding significantly reduced after 6 days of neural differentiation. The following applies: tags: endogenous on Ext1-/- mouse embryonic stem cells; chain copies: 2; label: AF488 (on streptavidin); G4.

For orientation: EC50 means the concentration at which the effect is half-maximal. High values mean lower potency in that assay, low ones higher potency in that assay. AGGTCAGATGAGGAGGGGGACTTAGGACTGGGTTTATGACCTATGCGTG (ssDNA, 5'-biotin) [Aptamer 19S] came in with an EC50 in data set [1] of around 107 nM.
For AGGTCAGATGAGGAGGGGGACTTAGGACTGGGTTTATGACCTATGCGTG (ssDNA, 5'-biotin, bound to streptavidin carrying biotinylated heparin (1:1:1)) [Hep-SA-19S (heparin-streptavidin-aptamer 19S chimera)], the response in data set [2] was half-maximal at 70 nM (EC50).
